Test results: US20050063973A1 (URIFER, published 2005)

Molecular target: T1, TMF/ARA160 (endogenous protein of C2C12, NIH3T3 and T127 cells) (UniProt B9EKI3 1-1091)
T1 construct: Endogenous protein, immunoprecipitated from whole cell extracts or stained in fixed cells; also called Gate-Keeper; GK
T1 sequence (looked up): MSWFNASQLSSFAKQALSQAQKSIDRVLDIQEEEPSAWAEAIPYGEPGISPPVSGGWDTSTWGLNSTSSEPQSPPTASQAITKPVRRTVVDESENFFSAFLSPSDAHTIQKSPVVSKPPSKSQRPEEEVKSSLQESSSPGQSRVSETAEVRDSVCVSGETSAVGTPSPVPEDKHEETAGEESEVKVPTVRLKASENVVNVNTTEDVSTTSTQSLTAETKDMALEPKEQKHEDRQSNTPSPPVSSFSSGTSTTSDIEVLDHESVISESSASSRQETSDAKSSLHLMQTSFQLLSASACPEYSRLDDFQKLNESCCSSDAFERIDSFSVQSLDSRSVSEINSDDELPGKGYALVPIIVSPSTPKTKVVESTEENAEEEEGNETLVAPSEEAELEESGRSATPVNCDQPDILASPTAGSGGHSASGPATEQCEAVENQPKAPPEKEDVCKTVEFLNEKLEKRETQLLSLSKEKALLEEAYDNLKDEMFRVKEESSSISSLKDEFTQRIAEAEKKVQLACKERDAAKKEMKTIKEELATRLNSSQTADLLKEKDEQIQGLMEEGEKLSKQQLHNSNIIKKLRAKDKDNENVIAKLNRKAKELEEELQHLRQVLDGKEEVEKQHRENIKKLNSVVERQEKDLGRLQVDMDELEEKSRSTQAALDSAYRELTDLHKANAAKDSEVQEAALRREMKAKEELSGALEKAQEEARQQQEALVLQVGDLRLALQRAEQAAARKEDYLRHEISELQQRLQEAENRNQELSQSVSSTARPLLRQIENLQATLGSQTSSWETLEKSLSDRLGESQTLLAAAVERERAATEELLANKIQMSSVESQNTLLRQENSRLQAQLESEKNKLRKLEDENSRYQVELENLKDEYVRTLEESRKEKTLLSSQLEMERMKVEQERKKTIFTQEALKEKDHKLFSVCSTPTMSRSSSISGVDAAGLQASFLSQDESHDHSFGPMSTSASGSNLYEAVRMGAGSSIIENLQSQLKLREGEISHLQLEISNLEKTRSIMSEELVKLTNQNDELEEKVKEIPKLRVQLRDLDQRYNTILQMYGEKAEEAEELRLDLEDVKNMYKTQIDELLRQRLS
Test: co-immunoprecipitation with αTMF/ARA160 from C2C12 extracts, Western blot with αStat1
Excerpt: FIG. 6 is an immunoprecipitation showing that TMF/ARA160 associates with cyclin D1 and Stat3 but not with Stat1, in serum starved C2C12 cells. […] Whole cell extracts from actively growing (lanes 1 and 5) or serum-starved cells (lanes 2-4 and 6-8) which were either untreated (lanes 1-4) or treated with MG132 (lanes 5-8), were resolved by 7% SDS-PAGE and exposed to αStat3 (upper panel); αcyclin D1 (middle panel); or αStat1 antibodies (lower panel), in a Western-blot analysis. […] TMF/ARA160 was immunoprecipitated from the extracts described in A. Precipitates were resolved by 7% SDS-PAGE and were reacted with αStat3 (upper panel); αStat1 (middle panel); or αcyclin D1 antibodies (lower panel), in a Western-blot analysis.

binding result: no binding
B1: Stat1 (endogenous protein of C2C12 cells) (other, UniProt P42225 2-749, looked up)
chain: SQWFELQQLDSKFLEQVHQLYDDSFPMEIRQYLAQWLEKQDWEHAAYDVSFATIRFHDLLSQLDDQYSRFSLENNFLLQHNIRKSKRNLQDNFQEDPVQMSMIIYNCLKEERKILENAQRFNQAQEGNIQNTVMLDKQKELDSKVRNVKDQVMCIEQEIKTLEELQDEYDFKCKTSQNREGEANGVAKSDQKQEQLLLHKMFLMLDNKRKEIIHKIRELLNSIELTQNTLINDELVEWKRRQQSACIGGPPNACLDQLQTWFTIVAETLQQIRQQLKKLEELEQKFTYEPDPITKNKQVLSDRTFLLFQQLIQSSFVVERQPCMPTHPQRPLVLKTGVQFTVKSRLLVKLQESNLLTKVKCHFDKDVNEKNTVKGFRKFNILGTHTKVMNMEESTNGSLAAELRHLQLKEQKNAGNRTNEGPLIVTEELHSLSFETQLCQPGLVIDLETTSLPVVVISNVSQLPSGWASILWYNMLVTEPRNLSFFLNPPCAWWSQLSEVLSWQFSSVTKRGLNADQLSMLGEKLLGPNAGPDGLIPWTRFCKENINDKNFSFWPWIDTILELIKNDLLCLWNDGCIMGFISKERERALLKDQQPGTFLLRFSESSREGAITFTWVERSQNGGEPDFHAVEPYTKKELSAVTFPDIIRNYKVMAAENIPENPLKYLYPNIDKDHAFGKYYSRPKEAPEPMELDDPKRTGYIKTELISVSEVHPSRLQTTDNLLPMSPEEFDEMSRIVGPEFDSMMSTV
